Two substances from patent publication US20140288007A1 can be followed below.

In experiment [1] the target is KgpcatΔABM1 (enriched fraction from P. gingivalis mutant ECR368) (Porphyromonas gingivalis) (UniProt Q51817). Briefly: cell-based or functional assay.
Experiment [2] shares this target. The experiment is described as follows: enzyme inhibition kinetics (non-competitive, Ki′), chromogenic substrate GPKNa, secondary plot of Vmax observed against inhibitor concentration.

pKi: −log10 of the molar value. “And” between values parts separate entries of the source, which are not always exact repeats. Equal entries are not always repeated.

A word on the pKi: it is the negative decadic logarithm of the Ki, by convention in mol/L. Read a low pKi as a high Ki. Take “recombinant Kgp propeptide (from UniProt Q51817 25-1732)”: in experiment [1], the inhibition of KgpcatΔABM1 activity, chromogenic substrate GPKNa is 75% and 60%; the inhibition of KgpcatΔABM1 enriched fraction activity, fluorescent BSA substrate (DQ BSA), 2 h stood at 66%. This substance also showed a negative-log Ki (pKi) in experiment [2] of 5.70.

In the case of “recombinant RgpB propeptide (from UniProt P95493 25-229)”, the % Proteolytic Activity (GPKNa; inhibitor 50 mg/L) in experiment [1] came out at 118%.
